According to US20180155451A1 (published 2018):

T1: FcγRIIa R (extracellular domain, C-terminal His tag) (human, UniProt P12318 34-217)
T1 construct: extracellular domain; also called FcgRIIa R type; 2aR; not shown: His tag attached to the C terminus
T1 sequence (looked up): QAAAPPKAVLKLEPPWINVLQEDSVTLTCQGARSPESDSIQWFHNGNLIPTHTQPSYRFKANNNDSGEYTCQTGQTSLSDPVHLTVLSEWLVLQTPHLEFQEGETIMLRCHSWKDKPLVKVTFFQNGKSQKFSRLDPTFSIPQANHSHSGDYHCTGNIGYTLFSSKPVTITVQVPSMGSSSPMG

T2: FcγRIIb (extracellular domain, C-terminal His tag) (human, UniProt P31994 43-217)
T2 construct: extracellular domain; also called FcgRIIb; 2b; not shown: His tag attached to the C terminus
T2 sequence (looked up): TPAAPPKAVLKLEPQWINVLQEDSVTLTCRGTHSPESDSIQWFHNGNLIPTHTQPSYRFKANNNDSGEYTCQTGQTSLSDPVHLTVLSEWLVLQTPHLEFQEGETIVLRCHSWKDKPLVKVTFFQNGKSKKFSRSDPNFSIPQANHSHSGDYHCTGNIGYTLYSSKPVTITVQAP


Key:
[1] = molecular target: T1, FcγRIIa R (extracellular domain, …); test: ratio of He/Con_2aR to He/Con_2b (FcγRIIb); SPR relative binding
Method: (§1) The heterodimerized antibodies He Abs in which one of the H chains was introduced with an alteration were assayed for their binding activities to each activating FcγR and inhibitory FcγR according to the method described in Example 4. […] The activating FcγRs in FIGS. 26, 27, 28, and 29 are FcγRIa, FcγRIIa (R), FcγRIIa (H), and FcγRIIIa, respectively.
(§2) Analysis of interaction between objective antibody and the FcγR was carried out using Biacore T100 (GE Healthcare). HBS-EP+ (GE Healthcare) was used as the running buffer, and the measurement temperature was set to 25° C. Chips produced by immobilizing the antigen peptide by the amine coupling method to a Series S Sencor Chip CM5 (GE Healthcare), or alternatively, chips produced by allowing preliminarily biotinylated antigen peptides to interact with and immobilize onto a Series S Sensor Chip SA (certified) (GE Healthcare) were used. Antibodies of interest were captured onto an antigen peptide-immobilized chip, and allowed to interact to each FcγR diluted with running buffer. To regenerate and repeatedly use the chip, the antibodies captured on the chip were washed off by reacting 10 mM glycine-HCl, pH 1.5.

[2] = molecular target: T1, FcγRIIa R (extracellular domain, …); test: SPR (Biacore), antibody captured on antigen-peptide chip, FcγR as analyte; relative binding amount
Method: as §1, §2

[3] = molecular target: T2, FcγRIIb (extracellular domain, …); test: as above
Method: as §1, §2

| Binder | He_2aR/2b (IIaR/IIb) [1] | He/Con_2aR [2] | He/Con_2b [3] |
| --- | --- | --- | --- |
| GpH7-A5/GpH7-B3 variant P238_18N/GpL16-k0 (antibody, human IgG1, kappa, Heterodimerized anti-glypican-3 IgG1; alteration in only one H chain (GpH7-B3 side); also called He Ab) heavy 1: not shown heavy 2: not shown light: DIVMTQSPLSLPVTPGEPASISCQASESLVHSNRNTYLHWYLQKPGQSPQLLIYKVSNRFSGVPDRFSGSGSGTDFTLKISRVEAEDVGVYYCSQNTHVPPTFGQGTKVEIERTVAAPSVFIFPPSDEQLKSGTASVVCLLNNFYPREAKVQWKVDNALQSGNSQESVTEQDSKDSTYSLSSTLTLSKADYEKHKVYACEVTHQGLSSPVTKSFNRGEC | 1.26 | 91.9 % of control (GpH7-A5/GpH7-B3/GpL16-k0 = 100) | 73.2 % of control (GpH7-A5/GpH7-B3/GpL16-k0 = 100) |
| GpH7-A5/GpH7-B3 variant S239_04F/GpL16-k0 (antibody, human IgG1, kappa, Heterodimerized anti-glypican-3 IgG1; also called He Ab) heavy 1: not shown heavy 2: not shown light: DIVMTQSPLSLPVTPGEPASISCQASESLVHSNRNTYLHWYLQKPGQSPQLLIYKVSNRFSGVPDRFSGSGSGTDFTLKISRVEAEDVGVYYCSQNTHVPPTFGQGTKVEIERTVAAPSVFIFPPSDEQLKSGTASVVCLLNNFYPREAKVQWKVDNALQSGNSQESVTEQDSKDSTYSLSSTLTLSKADYEKHKVYACEVTHQGLSSPVTKSFNRGEC | 1.24 | 54.8 % of control (GpH7-A5/GpH7-B3/GpL16-k0 = 100) | 44.1 % of control (GpH7-A5/GpH7-B3/GpL16-k0 = 100) |
| GpH7-A5/GpH7-B3 variant S239_11K/GpL16-k0 (antibody, human IgG1, kappa, Heterodimerized anti-glypican-3 IgG1; alteration in only one H chain (GpH7-B3 side); also called He Ab) heavy 1: not shown heavy 2: not shown light: DIVMTQSPLSLPVTPGEPASISCQASESLVHSNRNTYLHWYLQKPGQSPQLLIYKVSNRFSGVPDRFSGSGSGTDFTLKISRVEAEDVGVYYCSQNTHVPPTFGQGTKVEIERTVAAPSVFIFPPSDEQLKSGTASVVCLLNNFYPREAKVQWKVDNALQSGNSQESVTEQDSKDSTYSLSSTLTLSKADYEKHKVYACEVTHQGLSSPVTKSFNRGEC | 1.96 | 48.5 % of control (GpH7-A5/GpH7-B3/GpL16-k0 = 100) | 24.7 % of control (GpH7-A5/GpH7-B3/GpL16-k0 = 100) |

Continued, values first:

| He_2aR/2b (IIaR/IIb) [1] | He/Con_2aR [2] | He/Con_2b [3] | Binder |
| --- | --- | --- | --- |
| 1.38 | 53.9 % of control (GpH7-A5/GpH7-B3/GpL16-k0 = 100) | 39.1 % of control (GpH7-A5/GpH7-B3/GpL16-k0 = 100) | GpH7-A5/GpH7-B3 variant S239_12R/GpL16-k0 (antibody, human IgG1, kappa, Heterodimerized anti-glypican-3 IgG1; alteration in only one H chain (GpH7-B3 side); also called He Ab) heavy 1: not shown heavy 2: not shown light: DIVMTQSPLSLPVTPGEPASISCQASESLVHSNRNTYLHWYLQKPGQSPQLLIYKVSNRFSGVPDRFSGSGSGTDFTLKISRVEAEDVGVYYCSQNTHVPPTFGQGTKVEIERTVAAPSVFIFPPSDEQLKSGTASVVCLLNNFYPREAKVQWKVDNALQSGNSQESVTEQDSKDSTYSLSSTLTLSKADYEKHKVYACEVTHQGLSSPVTKSFNRGEC |
| 1.4 | 69.2 % of control (GpH7-A5/GpH7-B3/GpL16-k0 = 100) | 49.4 % of control (GpH7-A5/GpH7-B3/GpL16-k0 = 100) | GpH7-A5/GpH7-B3 variant S239_16H/GpL16-k0 (antibody, human IgG1, kappa, Heterodimerized anti-glypican-3 IgG1; alteration in only one H chain (GpH7-B3 side); also called He Ab) heavy 1: not shown heavy 2: not shown light: DIVMTQSPLSLPVTPGEPASISCQASESLVHSNRNTYLHWYLQKPGQSPQLLIYKVSNRFSGVPDRFSGSGSGTDFTLKISRVEAEDVGVYYCSQNTHVPPTFGQGTKVEIERTVAAPSVFIFPPSDEQLKSGTASVVCLLNNFYPREAKVQWKVDNALQSGNSQESVTEQDSKDSTYSLSSTLTLSKADYEKHKVYACEVTHQGLSSPVTKSFNRGEC |
| 1.21 | 42.2 % of control (GpH7-A5/GpH7-B3/GpL16-k0 = 100) | 34.9 % of control (GpH7-A5/GpH7-B3/GpL16-k0 = 100) | GpH7-A5/GpH7-B3 variant S239_15Y/GpL16-k0 (antibody, human IgG1, kappa, Heterodimerized anti-glypican-3 IgG1; alteration in only one H chain (GpH7-B3 side); also called He Ab) heavy 1: not shown heavy 2: not shown light: DIVMTQSPLSLPVTPGEPASISCQASESLVHSNRNTYLHWYLQKPGQSPQLLIYKVSNRFSGVPDRFSGSGSGTDFTLKISRVEAEDVGVYYCSQNTHVPPTFGQGTKVEIERTVAAPSVFIFPPSDEQLKSGTASVVCLLNNFYPREAKVQWKVDNALQSGNSQESVTEQDSKDSTYSLSSTLTLSKADYEKHKVYACEVTHQGLSSPVTKSFNRGEC |
